The Human Domainome abundance scans (Beltran et al. 2025)

B1: RAS guanyl-releasing protein 1, residues 539 to 593; numbered along this chain, O95267 (parent)
chain: GFPHNFQETTYLKPTFCDNCAGFLWGVIKQGYRCKDCGMNCHKQCKDLVVFECKK

Variants of: B1
Test: abundance fitness (aPCA) (normalised: wild type 0, dead -1); higher = more abundant; growth selection in yeast, the domain comes from the species named
Details: Homo sapiens

Abundance fitness of substitutions, site by site:
R33: G -0.134 | K 0.121 | C 0.122 | W 0.004 | A -0.167 | N 0.286 | I 0.118 | D -0.26 | M 0.069 | S -0.025 | E 0.129 | L -0.078 | Y -0.402 | F -0.017 | V -0.1 | P -0.919 | Q -0.262
Q30: L -0.765 | I -0.872 | F -0.756 | A -0.597 | S -0.54 | P -0.669 | G -0.52 | E -0.589 | Y -0.693 | R -0.519 | N -0.495 | W -0.586 | K -0.599 | V -0.617 | H -0.663
N40: T -0.042 | A -0.081 | D -0.023 | C -0.137 | R -0.142 | V -0.063 | Q -0.02 | L -0.349 | Y -0.285 | M -0.087 | H -0.127 | P -0.144 | G -0.08 | E -0.082 | I -0.093 | K -0.17
M39: K -0.079 | G -0.097 | A -0.111 | W -0.157 | I -0.115 | C -0.455 | T -0.142 | V -0.111 | L -0.122 | Y -0.1 | F -0.158 | R -0.143 | P -1.03 | Q -0.032 | D -0.242 | N -0.15
D36: Q -0.209 | W -0.041 | E -0.021 | H -0.148 | N -0.006 | F -0.108 | A -0.146 | S -0.028 | T -0.02 | R -0.055 | Y -0.296 | K -0.139 | V -0.289 | M -0.09 | I -0.028 | C -0.245 | G 0.118 | P -0.2 | L -0.051
H42: I -0.939 | N -0.815 | V -1.09 | F -0.981 | G -0.249 | S -0.319 | P -0.859 | A -0.841 | Q -0.862 | L -1.09 | T -0.921 | R -0.916 | M -0.76 | C -0.416 | K -0.849
K35: P -0.134 | N -0.297 | F -0.193 | W -0.19 | L 0.021 | T -0.022 | M -0.266 | Y 0.024 | S -0.026 | V -0.135 | E 0.039 | I -0.009 | H -0.029 | A 0.041 | R -0.004 | D -0.096 | C -0.13 | Q 0.1 | G -0.118
W25: S -0.246 | E -0.047 | C -0.558 | P -0.07 | K -0.206 | V -0.102 | Y -0.191 | D -0.121 | R -0.217 | L -0.286 | I -0.038 | A -0.148 | F -0.143 | M -0.247 | G -0.425 | N -0.377 | H -0.226 | T 0.157 | Q -0.128
V27: F 0.027 | L -0.063 | A -0.102 | H -0.516 | R -0.647 | K -0.434 | P -0.297 | W -0.22 | I -0.119 | G -0.19 | D -0.657 | E -0.17 | Y -0.018 | C -0.192 | S -0.423
I28: K 0.065 | C -0.223 | Q -0.462 | W -0.111 | V -0.056 | T -0.116 | L -0.27 | Y -0.199 | D -0.429 | E -0.341 | H -0.209 | N -0.243 | R -0.084 | S -0.136
C37: M -0.904 | E -0.967 | G -1.14 | D -0.864 | W -0.607 | T -0.427 | L -0.953 | Y -0.708 | A -1.25 | S -0.625 | R -0.879 | K -0.933 | F -0.924 | N -0.824 | Q -0.87 | P -1.07 | V -0.959
C34: M -0.649 | I -0.724 | R -0.954 | Q -0.924 | G -0.951 | Y -0.922 | H -0.809 | L -0.915 | T -0.776 | A -0.81 | W -0.891 | S -0.947 | D -0.269 | V -0.723 | K -0.886 | F -0.729
F23: S -0.431 | I -0.032 | H -0.706 | G -0.328 | Q -0.204 | M -0.022 | A -0.433 | N -0.628 | T -0.503 | W 0.014 | R -0.242 | K -0.297 | Y -0.074 | C -0.166 | L 0.105 | V -0.132 | D -0.423 | P -0.409 | E -0.333
G38: M -0.095 | S -0.02 | E 0.077 | W -0.109 | P -0.081 | I -0.453 | T -0.282 | F -0.071 | N 0.062 | D -0.003 | A 0.032 | Q -0.281 | L -0.075 | Y -0.514 | C -0.095
G22: Y -0.317
K29: F -0.224 | P -0.556 | V -0.289 | R -0.103 | C -0.171 | T -0.289 | W -0.256 | D -0.618 | S -0.086 | I -0.252 | Y -0.011 | N 0.013 | A -0.124 | E -0.386 | M -0.052 | H -0.108
G26: I -0.946 | K -0.442 | T -0.529 | A -0.225 | R -0.616 | F -0.703 | L -0.452 | C -0.563 | M -0.345 | E -0.517 | V -0.736 | N -0.562 | H -0.375 | W -0.269 | Q -0.462 | D -0.449
G31: K -0.748 | Y -0.06 | C -0.352 | H -0.559 | W -0.901 | M -0.461 | E -0.414 | L -0.663 | V -0.479 | R -0.719 | D -0.597 | P -1.08 | S -0.482 | I -0.685 | A -0.092 | N -0.717 | F -0.205
L24: I -0.049 | K -0.333 | M 0.248 | Y -0.623 | A -0.396 | W -0.617 | E -0.369 | S -0.325 | H -0.465 | D -0.709 | R -0.375 | T -0.279 | F -0.006 | Q -0.424 | V -0.241 | N -0.303 | G -0.48 | P -0.612 | C -0.118
C41: Y 0.02 | K -0.139 | T -0.035 | M -0.281 | A -0.016 | W -0.191 | L -0.023 | Q -0.484 | H -0.662 | V 0.068 | E -0.414 | F -0.331 | I -0.012 | D -0.758 | N -0.47
Y32: G -0.186 | W -0.068 | R -0.393 | T 0.093 | C -0.059 | K -0.132 | I -0.184 | P -0.883 | V -0.007 | F -0.312 | L -0.104 | E -0.166 | A -0.171 | Q -0.536 | H -0.132 | M -0.101 | D -0.224 | S -0.026
